T1: recombinant purified human IL-12 p70 (human, UniProt P29459 23-219)
T1 construct: Disulfide-linked heterodimer of p35 and p40; also called hIL-12; Hu IL-12
T1 sequence 1: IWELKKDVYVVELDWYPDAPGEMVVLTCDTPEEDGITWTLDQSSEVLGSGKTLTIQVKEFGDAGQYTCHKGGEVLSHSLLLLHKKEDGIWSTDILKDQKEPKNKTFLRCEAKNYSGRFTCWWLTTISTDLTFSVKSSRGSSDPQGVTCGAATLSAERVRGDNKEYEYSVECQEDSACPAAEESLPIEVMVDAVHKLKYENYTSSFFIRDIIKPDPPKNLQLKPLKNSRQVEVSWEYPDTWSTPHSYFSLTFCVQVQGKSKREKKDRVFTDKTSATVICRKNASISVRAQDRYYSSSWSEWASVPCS
T1 sequence 2: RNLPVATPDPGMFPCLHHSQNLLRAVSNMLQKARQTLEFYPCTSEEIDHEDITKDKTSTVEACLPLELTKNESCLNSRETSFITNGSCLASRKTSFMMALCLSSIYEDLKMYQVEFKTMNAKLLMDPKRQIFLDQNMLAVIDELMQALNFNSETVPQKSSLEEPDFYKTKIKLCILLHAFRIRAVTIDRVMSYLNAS


How the values were obtained:
[1] = biological target: T1, recombinant purified human IL-12 p70; experiment: competition ELISA on coated human IL-12, competitor of 0.8 µg/ml biotinylated 8E1, Expt. 3
Method: (§1) MaxiSorp ELISA plates (Nalge Nunc International) were coated overnight at 4° C. with 100 μl/well of 1.0 μg/ml human IL-12 in 0.2 M sodium carbonate-bicarbonate buffer, pH 9.4, washed with Wash Buffer (PBS containing 0.1% Tween 20), and blocked for 1 hr at room temperature with 300 μl/well of SuperBlock Blocking Buffer in TBS (Pierce Chemical Company). […] As isotype controls, 100 μl/well of 100 μg/ml mouse IgG 1/κ (MuFd79) or humanized IgG1/κ (HuFd79) monoclonal antibodies in ELISA buffer was used. As a no-competitor control, 100 μl/well of ELISA Buffer was used. After incubating the plates for 1 hr at room temperature, and washing with Wash Buffer, bound antibodies were detected using 100 μl/well of 1 μg/ml HRP-conjugated streptavidin (Pierce Chemical Company) in ELISA buffer. After incubating for 1 hr at room temperature, and washing with Wash Buffer, color development was performed by adding 100 μl/well of ABTS Peroxidase Substrate/Peroxidase Solution B (KPL, Inc.). After incubating for 5 min at room temperature, color development was stopped by adding 50 μl/well of 2% oxalic acid. Absorbance was read at 415 nm.
(§2) The affinity of 8E1.4, 8E1.5 and 8E1.6 to human IL-12 was analyzed by competition ELISA as described above.

[2] = biological target: T1, recombinant purified human IL-12 p70; experiment: SPR (Biacore) according to Example 1.1.B
Method: The BIACORE assay (Biacore, Inc, Piscataway, N.J.) determines the affinity of antibodies with kinetic measurements of on-, off-rate constants. Binding of antibodies to recombinant purified human IL-12 p70 or recombinant purified human IL-12 p40 were determined by surface plasmon resonance-based measurements with a Biacore® 3000 instrument (Biacore® AB, Uppsala, Sweden) using running HBS-EP (10 mM HEPES [pH 7.4], 150 mM NaCl, 3 mM EDTA, and 0.005% surfactant P20) at 25° C. All chemicals were obtained from Biacore® AB (Uppsala, Sweden) or otherwise from a different source as described in the text. Approximately 5000 RU of goat anti-mouse IgG, (Fcγ), fragment specific polyclonal antibody (Pierce Biotechnology Inc, Rockford, Ill.) diluted in 10 mM sodium acetate (pH 4.5) was directly immobilized across a CM5 research grade biosensor chip using a standard amine coupling kit according to manufacturer's instructions and procedures at 25 μg/ml. Unreacted moieties on the biosensor surface were blocked with ethanolamine. Modified carboxymethyl dextran surface in flowcell 2 and 4 was used as a reaction surface. Unmodified carboxymethyl dextran without goat anti-mouse IgG in flow cell 1 and 3 was used as the reference surface. For kinetic analysis, rate equations derived from the 1:1 Langmuir binding model were fitted simultaneously to association and dissociation phases of all eight injections (using global fit analysis) with the use of Biaevaluation 4.0.1 software. Purified antibodies were diluted in HEPES-buffered saline for capture across goat anti-mouse IgG specific reaction surfaces. Mouse antibodies to be captured as a ligand (25 μg/ml) were injected over reaction matrices at a flow rate of 5 μl/min. The association and dissociation rate constants, kₒₙ (unit M⁻¹ s⁻¹) and koff (unit s⁻¹) were determined under a continuous flow rate of 25 μl/min. Rate constants were derived by making kinetic binding measurements at ten different antigen concentrations ranging from 10-200 nM. The equilibrium dissociation constant (unit M) of the reaction between mouse antibodies and recombinant purified human IL-12 p70 or recombinant purified human IL-12 p40 was then calculated from the kinetic rate constants by the following formula: KD=koff/kₒₙ. Binding is recorded as a function of time and kinetic rate constants are calculated.

[3] = biological target: T1, recombinant purified human IL-12 p70; experiment: cell-based or functional assay
[4] = biological target: T1, recombinant purified human IL-12 p70; experiment: competition ELISA on coated human IL-12, competitor of 0.8 µg/ml biotinylated 8E1, Expt. 2
Method: MaxiSorp ELISA plates (Nalge Nunc International) were coated overnight at 4° C. with 100 μl/well of 1.0 μg/ml human IL-12 in 0.2 M sodium carbonate-bicarbonate buffer, pH 9.4, washed with Wash Buffer (PBS containing 0.1% Tween 20), and blocked for 1 hr at room temperature with 300 μl/well of SuperBlock Blocking Buffer in TBS (Pierce Chemical Company). After washing with Wash Buffer, a mixture of biotinylated 8E 1 ([…] final concentration) and competitor antibody (8E1 or 8E1.4 or 8E1.5 or 8E1.6) starting at 100 μg/ml final concentration and serially diluted 3-fold) in 100 μl/well of ELISA buffer was added in duplicate. As isotype controls, 100 μl/well of 100 μg/ml mouse IgG 1/κ (MuFd79) or humanized IgG1/κ (HuFd79) monoclonal antibodies in ELISA buffer was used. As a no-competitor control, 100 μl/well of ELISA Buffer was used. After incubating the plates for 1 hr at room temperature, and washing with Wash Buffer, bound antibodies were detected using 100 μl/well of 1 μg/ml HRP-conjugated streptavidin (Pierce Chemical Company) in ELISA buffer. After incubating for 1 hr at room temperature, and washing with Wash Buffer, color development was performed by adding 100 μl/well of ABTS Peroxidase Substrate/Peroxidase Solution B (KPL, Inc.). […] Absorbance was read at 415 nm.
as §2

[5] = biological target: T1, recombinant purified human IL-12 p70; experiment: competition ELISA on coated human IL-12, competitor of 0.8 µg/ml biotinylated 8E1, average
Method: as §1, §2

[6] = biological target: T1, recombinant purified human IL-12 p70; experiment: competition ELISA on coated human IL-12, competitor of 0.8 µg/ml biotinylated 8E1, Expt. 1
Method: as §1, §2

IC50 [1]	Kd [2]	koff [2]	kon [2]	Av. IC50 (nM) huIL-12, PHA blast assay [3]	IC50 [4]	IC50 [5]	IC50 [6]	Binder
8.33 µg/mL	1.3 nM	0.001 s⁻¹	800000 M⁻¹ s⁻¹	12 nM				additional humanized anti-IL-12 antibody 8E1.4 (antibody, IgG1, V domains shown, IgG1/kappa) VH: EVQLVESGGGLVQPGGSLRLSCAASGFTFSDYGMVWVRQAPGKGLEWVASISSGSSNIYYADTVKGRFTISRDNAKNTLYLQMNSLRAEDTAVYYCARNPYWGQGTLVTVSS VL: DIQMTQSPSSLSASVGDRVTITCKASQNVGTNVAWYQQKPGKAPKGLIYSASHRYSGVPSRFSGSGSGTDFTLTISSLQPEDFATYYCQQYNSYPLTFGGGTKVEIKR
13.4 µg/mL	0.75 nM	0.00124 s⁻¹	1.6e+06 M⁻¹ s⁻¹	8 nM				additional humanized anti-IL-12 antibody 8E1.5 (antibody, IgG1, V domains shown, IgG1/kappa) VH: EVQLVESGGGLVQPGGSLRLSCAASGFTFSDYGMVWVRQAPGKGLEWVASISSGSSNIYYADTVKGRFTISRDNAKNTLYLQMNSLRAEDTAVYYCARNPYWGQGTLVTVSS VL: DIQMTQSPSSLSASVGDRVTITCKASQNVGTNVAWYQQKPGKAPKGLIYSASHRYSGVPDRFSGSGSGTDFTLTISSLQPEDFATYYCQQYNSYPLTFGGGTKVEIKR
1.61 µg/mL	0.046 nM	8e-05 s⁻¹	1.7e+06 M⁻¹ s⁻¹		2.43 µg/mL	2.1 µg/mL	2.25 µg/mL	additional humanized anti-IL-12 antibody 8E1.6 (antibody, V domains shown, IgG1/kappa, expressed in 293T/17 cells from pVg1.D.Tt (D356E L358M, L234A L235A) and pVk) VH: EVQLVESGGGLVQPGGSLRLSCAASGFTFSDYGMVWVRQAPGKGLEWVASISSGSSNIYYADTVKGRFTISRDDAKNTLYLQMNSLRAEDTAVYYCARNPYWGQGTLVTVSS VL: DIQMTQSPSSLSASVGDRVTITCKASQNVGTNVAWYQQKPGKAPKGLIYSASHRYSGVPSRFSGSGSGTDFTLTISSLQPEDFATYYCQQYNSYPLTFGGGTKVEIKR
